The supplement of paper PMC12764529
± gives the half width of the 95% confidence interval.

Columns and labels:
[1] = folding stability dG unfold from chymotrypsin proteolysis; higher = more stable
In short: (§1)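 Designed mini-proteins (under 80 residues, no cysteine) in a PA-tagged cDNA display construct were digested with trypsin and chymotrypsin. Each protease was used at 11 concentrations (threefold dilutions) plus a no-protease condition, followed by sequencing. K50 was inferred by Bayesian fitting of sequencing counts, and unfolding free energy was derived against a sequence-predicted unfolded-state K50 and a shared folded-state K50, per protease or combined. Only designs with AlphaFold2 dimer inter-PAE above 15 were kept.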

[2] = folding stability dG unfold (combined trypsin and chymotrypsin); higher = more stable
In short: as §1

[3] = folding stability dG unfold from trypsin proteolysis; higher = more stable
In short: as §1

Sequence | folding stability dG unfold [1] [kcal/mol] | folding stability dG unfold [2] [kcal/mol] | folding stability dG unfold [3] [kcal/mol]
SAGGSAGGSAGEFEILSIETEPPNGRVEIAIRFDDWVVVINFDNPNEPELYPVRPDDGIFSAGGSAGGSAGG [r17_145_TrROS] | 2.24 ± 0.12 | 2.3 ± 0.17 | 2.54 ± 0.19
SAGGFRIERDGDYLRIEIRVNDPPGQPVEEAKNIMKQLFGFKDIKVDEIEPNPNGQAEIEIEIPFPKSAGGS [r16_234_TrROS] | -0.3 ± 0.29 | 0.393 ± 0.12 | 0.658 ± 0.13
SAGGSAPPPKWIMFKIEATMPPNDLDNVVEELLKILFGFKIKNIEVEWEQVKDGYYKVPVWVMIRFSAGGSA [r15_138_TrROS] | 4.05 ± 0.093 | 4.12 ± 0.4 | 3.01 ± 0.41
SAGGMSPDQIWKAKLLSRKKGKNGSVYNIVIYNPDNPKPIFINKPGDNPEDVLKELEELVKKGPIDLESAGG [r13_286_TrMRF] | 0.549 ± 0.21 | 0.468 ± 0.18 | 0.354 ± 0.22
SAGMMLIEVEKNGEPVEVAEVKDDEITITLPKEKVRIRIVNADTGEEVEAEATVEDGTITIKLPPGVKLSAG [r5_469_TrROS_Hall] | -0.794 ± 0.45 | 0.232 ± 0.19 | 0.669 ± 0.077
KKYKVPVKEALKVAKKLIEKGYEKVKITAYLPNGEKYEIEDIKEFEEELKKKFPGIKPENLTVEIEVIPKES [r1_325_TrMRF] | 4.49 ± 0.26 | 4.16 ± 0.37 | 3.26 ± 0.15
SAGGSMVIEAEIEFPDMTPEEVEERAEEIAEAAAEFARKKGFPIKKVEADVEVFPGEGVVKVTVTLEGSAGG [r13_212_TrMRF] | 0.204 ± 0.2 | 0.611 ± 0.11 | 0.612 ± 0.043
SAGGSAGGSAGMKPNEPDLVLLTTTVTLTTTETTTDEDGNTYTTTTTTTLTTTTLLPRGTSAGGSAGGSAGG [r17_523_TrROS_Hall] | 3.94 ± 0.087 | 3.63 ± 0.1 | 2.77 ± 0.17
SAGGSAGGSAGGSIVIEVDTLEEAKKLAEKLNLKVTEVKEVDGKLYVKIEIKSPEELKKSAGGSAGGSAGGS [r10_218_TrROS_Hall] | 2.002 ± 0.018 | 1.53 ± 0.12 | 0.204 ± 0.11
SAGGSAGGKTIVIDMSIEEIAKKLGLEIVEVKKNKDGSVTITLKNGKKITIKVKSPEDLLKAIKSAGGSAGG [r6_13_TrROS_Hall] | 3.03 ± 0.15 | 2.54 ± 0.29 | 1.65 ± 0.11
SAGGSAGGSKKKPYIIKIYYKDPKTKKKSKKEILVSGKVKNPEKFAKEAAKKLGPVGKVEFKPSAGGSAGGS [r12_942_TrMRF] | 0.757 ± 0.15 | 0.537 ± 0.098 | -0.0324 ± 0.084
SAGGSAGGDAKTFEVEGMTVFVDPETGLAVAEFPDGYLALGRIEVFGPGVAKVDLEIFPLPPGLSAGGSAGG [r6_670_TrMRF] | 1.53 ± 0.071 | 1.61 ± 0.13 | 1.74 ± 0.11
SMEKVKAKPAGEVTFVFDNEDPSLTPEQQVELVEKELEKLPELKIYEVEAEVDLETGKVTIKVKLLVEEVSA [r9_1001_TrMRF] | 1.26 ± 0.11 | 0.814 ± 0.22 | -0.41 ± 0.28
SAGGLPEEVEKLAEILAKLPPVVPVPVTFPDGVEVVYFPPTGFVAVRFYERDENGEWVLVGETFFPVSAGGS [r16_243_TrMRF] | 3.235 ± 0.016 | 2.98 ± 0.05 | 2.44 ± 0.042
SAGKVKIEVEEVPPNVKKVKVESLEELLEAAKKLPPGAVVEVELEDGSKVTVVLNKDGKVVEVKKEPVPSAG [r5_506_TrROS_Hall] | 0.9 ± 0.16 | 1.58 ± 0.27 | 2.61 ± 0.35
SAGGSAGGSSAVVPLPDVVLVVLTFPDGGPPVLALLFPPTGRVVFVHPDSVTVAPFAPGGSLLSAGGSAGGS [r12_536_TrMRF] | 1.74 ± 0.062 | 1.51 ± 0.07 | 1.1 ± 0.036
SAGGSAGGSMTLIGTTTLPSPDGSLVTVDTYKVPGSDELVAKVTTLNGTTWTTETRPLSEFLKSAGGSAGGS [r12_1063_JUSTAS] | 0.913 ± 0.14 | 0.646 ± 0.1 | 0.188 ± 0.081
SAGGSAGGSAGWGLIITIEVEGEYDPANGQWSLNIEIEIQPIRIPPPKEPPPDDNPNNDDSAGGSAGGSAGG [r17_454_TrROS] | 4.08 ± 0.15 | 3.86 ± 0.32 | 2.27 ± 0.23
SAGGSAGGSAGGMVIERPLPNGEPLLVELGRPASAPARVTVPNPGRPLGTITSLEELEERSAGGSAGGSAGG [r7_72_TrMRF] | 0.565 ± 0.03 | 0.332 ± 0.13 | -0.207 ± 0.11
SAGGSAGGSAMKIKIEVVKNKNGYYYLKVEIEVNGKKIEITIKVPKNEKVSIEELLKKILKKSAGGSAGGSA [r18_111_TrROS_Hall] | 4.55 ± 0.12 | 4.07 ± 0.16 | 2.78 ± 0.12
SAGGSAKLIVADVSPLPDGGFAVNVTFVGENGEPVAVKPFYAGSPEELLAALKKFAEENGYEVVVASAGGSA [r15_242_TrMRF] | 4.57 ± 0.06 | 4.43 ± 0.11 | 3.6 ± 0.12

Sequence | folding stability dG unfold [1] [kcal/mol] | folding stability dG unfold [2] [kcal/mol] | folding stability dG unfold [3] [kcal/mol]
SAGGSAGGRFTVQFRVPGTLEEAREKAEEIAENLPPNFKDVEVDIEPHPKNGWIRVEVQIKMKKSAGGSAGG [r6_164_TrROS] | 1.07 ± 0.16 | 1.01 ± 0.31 | 0.991 ± 0.16
SAGGPEELAERIAEFARENGYEVDVLSVEELPGDFVRIHMRIRGLSEDEPVFERDAVLVFPPLPGERSAGGS [r8_102_TrMRF] | 3.439 ± 0.02 | 3 ± 0.052 | 1.45 ± 0.025
SMPVTITRDFDIPLATLSVEEVKAAIEEALKAEGLNVVEPKLDEKLVKELEEAPPSSTLPVKVTVLVEPASA [r9_1163_JUSTAS] | 0.715 ± 0.049 | 0.62 ± 0.15 | 0.35 ± 0.074
SAGSKVPVTATATFSDKAELEKTVADIKAKTGYDIEVTYDPNSNSYTITVNTTDEVVKMLKEKGFKLESAGG [r19_306_JUSTAS] | 1.94 ± 0.13 | 2.14 ± 0.28 | 2.33 ± 0.13
SAGGSKMEIVKYDKEKNVIYVRVDGKTYTFPLDEITEVTFDEETGELTIKVNGKTYTIKLDLPDLVSAGGSA [r2_48_TrROS_Hall] | 4.29 ± 0.12 | 4.11 ± 0.29 | 3.22 ± 0.16
SAGGSAKMKKVKITLYAKVKSLEEAKEIAEEIKKSFPSIEKVEVKTEPLEDGSLLVKVDAIFYVPESAGGSA [r15_726_TrMRF] | 4.17 ± 0.11 | 3.7 ± 0.16 | 2.66 ± 0.072
SAGGMTVTLEIEIPAEELSEEELKALLEELFPNAEVTVERLPDGTLRITIRVEVPPAPPEVVVLPDKSAGGS [r16_535_TrROS_Hall] | 2.97 ± 0.12 | 2.88 ± 0.12 | 2.63 ± 0.082
SAGMAVVKITLEYEDGRKEEFILFVESENPEEVLEEAEEALAELIEELDVPLKSATIEIYDIPPDEELSAGG [r19_335_TrMRF] | 3.39 ± 0.09 | 3 ± 0.1 | 2.12 ± 0.11
SAGGKVYEFEIEVELLDPETGKPKKIKLKVPVFVDPKTGKVTKKVEAEPEPNVPKEEAEKIAKEIIEAESAG [r14_152_TrMRF] | 1.71 ± 0.073 | 1.36 ± 0.31 | -0.04 ± 0.38
SAGGDITITKNPENDYYTITLPLPNSNSTAVAFLDPKTGTAVVINPDNPLVLVLEPNGTLKEVKLLPPSAGG [r13_101_TrMRF] | 0.566 ± 0.2 | 0.902 ± 0.15 | 1.04 ± 0.05
SMPLTPEEVEEVVEAVAKELEEETGEEVKAEVFYDPETGRFYAVIELPDGRRVRIEIDPETGEVRVEVEASA [r9_9_TrMRF] | 4.17 ± 0.15 | 4.02 ± 0.1 | 3.8 ± 0.13
SAVEIEFWFPGGMSVEEFVNEFSKILPGLRDVDIGVEPYPETDMWKVTATIRIVPPPSPEDQEEMQKNKSAG [r14_645_TrROS] | 1.7 ± 0.051 | 1.62 ± 0.1 | 1.38 ± 0.07
SAGGSAGGKAEKITLEIPNTGKKVEIIKPENKAIITVYDKNGKPIKTIVVPPNFPGIEDAVKADSAGGSAGG [r6_424_TrMRF] | 0.773 ± 0.061 | 0.434 ± 0.12 | -0.267 ± 0.068
SAGGSAGGSPGKPYVEVEFTFIAFFPDGWLWVMTMKIEIPPDNNEIKPDIEMERIPLPPGQFLSAGGSAGGS [r12_811_TrROS] | 2.73 ± 0.066 | 2.7 ± 0.08 | 2.43 ± 0.05
SAGGSAGGSATITITVDGKTITLEVPEDSEVEIVFDEKTGKLFIKDKKTNKVYEVSLEELLSAGGSAGGSAG [r3_137_TrROS_Hall] | 3.98 ± 0.15 | 3.92 ± 0.13 | 3.58 ± 0.22
SAGGSAGGSSPSSVSTYDIEFPDGTKIKITVTLGPGTPVVEITTLTESPPVKRVANTEEVKFESAGGSAGGS [r20_100_JUSTAS] | 0.995 ± 0.041 | 0.696 ± 0.19 | -0.0821 ± 0.059
SAGGKTVVIELDGARIEFNEDDGTITVWMPREELEALKAALPPGAEIVEVRERPDGWVQVTIRITPPSAGGS [r8_415_TrROS_Hall] | 4.21 ± 0.15 | 3.89 ± 0.1 | 3.1 ± 0.14
SAWIPAKEIAKYLAKELQEKMPHPGMKIPVDVETNPEENYVRVDIDIEHPGDGGKWKFEIYIPPGDTIVSAG [r14_849_TrROS] | 1.8 ± 0.095 | 1.29 ± 0.12 | 0.664 ± 0.038
SMTLITLTDPVTNVPVEKVEVRKLEDGTYEATVTTKEPSKTTTKTYPLPPDEKITDVLKSLGLKEAEINLSA [r9_492_JUSTAS] | 0.538 ± 0.093 | 0.445 ± 0.17 | 0.255 ± 0.036
SAGGSAKVVEKDGKLVIELEVPPDMSEEELKKLAEELAKLLPPGAKIEVKYDKETKRVVIVVELKDSAGGSA [r15_210_TrROS_Hall] | 1.79 ± 0.16 | 1.79 ± 0.14 | 1.64 ± 0.12
SAGGSAGGSMVYKVTVYIPESGETREFVDPGSEEEIKARVKELFPDPNVKVEITPIEASPELLSAGGSAGGS [r12_92_JUSTAS] | 1.51 ± 0.051 | 1.82 ± 0.045 | 2.11 ± 0.042
